Results taken from IntAct's records for PubMed 31515488.

B1: Phosphatidylserine lipase ABHD16A (Homo sapiens), O95870 (parent)
chain: MAKLLSCVLGPRLYKIYRERDSERAPASVPETPTAVTAPHSSSWDTYYQPRALEKHADSILALASVFWSISYYSSPFAFFYLYRKGYLSLSKVVPFSHYAGTLLLLLAGVACLRGIGRWTNPQYRQFITILEATHRNQSSENKRQLANYNFDFRSWPVDFHWEEPSSRKESRGGPSRRGVALLRPEPLHRGTADTLLNRVKKLPCQITSYLVAHTLGRRMLYPGSVYLLQKALMPVLLQGQARLVEECNGRRAKLLACDGNEIDTMFVDRRGTAEPQGQKLVICCEGNAGFYEVGCVSTPLEAGYSVLGWNHPGFAGSTGVPFPQNEANAMDVVVQFAIHRLGFQPQDIIIYAWSIGGFTATWAAMSYPDVSAMILDASFDDLVPLALKVMPDSWRGLVTRTVRQHLNLNNAEQLCRYQGPVLLIRRTKDEIITTTVPEDIMSNRGNDLLLKLLQHRYPRVMAEEGLRVVRQWLEASSQLEEASIYSRWEVEEDWCLSVLRSYQAEHGPDFPWSVGEDMSADGRRQLALFLARKHLHNFEATHCTPLPAQNFQMPWHL
partner: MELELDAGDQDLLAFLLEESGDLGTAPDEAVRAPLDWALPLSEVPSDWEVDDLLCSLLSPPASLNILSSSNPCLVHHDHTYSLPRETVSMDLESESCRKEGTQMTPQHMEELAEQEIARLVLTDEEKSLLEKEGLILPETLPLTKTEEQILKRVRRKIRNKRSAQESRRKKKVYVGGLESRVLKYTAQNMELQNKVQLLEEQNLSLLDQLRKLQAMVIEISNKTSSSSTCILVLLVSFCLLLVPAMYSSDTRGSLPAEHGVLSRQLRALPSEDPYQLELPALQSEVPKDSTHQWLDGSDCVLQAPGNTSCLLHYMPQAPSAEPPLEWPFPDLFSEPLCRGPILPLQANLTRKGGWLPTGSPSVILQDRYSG
B2: Probable RNA-binding protein 46 (Homo sapiens), Q8TBY0 (parent)
chain: MNEENIDGTNGCSKVRTGIQNEAALLALMEKTGYNMVQENGQRKFGGPPPGWEGPPPPRGCEVFVGKIPRDMYEDELVPVFERAGKIYEFRLMMEFSGENRGYAFVMYTTKEEAQLAIRILNNYEIRPGKFIGVCVSLDNCRLFIGAIPKEKKKEEILDEMKKVTEGVVDVIVYPSATDKTKNRGFAFVEYESHRAAAMARRKLIPGTFQLWGHTIQVDWADPEKEVDEETMQRVKVLYVRNLMISTTEETIKAEFNKFKPGAVERVKKLRDYAFVHFFNREDAVAAMSVMNGKCIDGASIEVTLAKPVNKENTWRQHLNGQISPNSENLIVFANKEESHPKTLGKLPTLPARLNGQHSPSPPEVERCTYPFYPGTKLTPISMYSLKSNHFNSAVMHLDYYCNKNNWAPPEYYLYSTTSQDGKVLLVYKIVIPAIANGSQSYFMPDKLCTTLEDAKELAAQFTLLHLDYNFHRSSINSLSPVSATLSSGTPSVLPYTSRPYSYPGYPLSPTISLANGSHVGQRLCISNQASFF
B3: LIM/homeobox protein Lhx4 (Homo sapiens), Q969G2 (parent)
chain: MMQSATVPAEGAVKGLPEMLGVPMQQIPQCAGCNQHILDKFILKVLDRHWHSSCLKCADCQMQLADRCFSRAGSVYCKEDFFKRFGTKCTACQQGIPPTQVVRKAQDFVYHLHCFACIICNRQLATGDEFYLMEDGRLVCKEDYETAKQNDDSEAGAKRPRTTITAKQLETLKNAYKNSPKPARHVREQLSSETGLDMRVVQVWFQNRRAKEKRLKKDAGRHRWGQFYKSVKRSRGSSKQEKESSAEDCGVSDSELSFREDQILSELGHTNRIYGNVGDVTGGQLMNGSFSMDGTGQSYQDLRDGSPYGIPQSPSSISSLPSHAPLLNGLDYTVDSNLGIIAHAGQGVSQTLRAMAGGPTSDISTGSSVGYPDFPTSPGSWLDEMDHPPF
partner: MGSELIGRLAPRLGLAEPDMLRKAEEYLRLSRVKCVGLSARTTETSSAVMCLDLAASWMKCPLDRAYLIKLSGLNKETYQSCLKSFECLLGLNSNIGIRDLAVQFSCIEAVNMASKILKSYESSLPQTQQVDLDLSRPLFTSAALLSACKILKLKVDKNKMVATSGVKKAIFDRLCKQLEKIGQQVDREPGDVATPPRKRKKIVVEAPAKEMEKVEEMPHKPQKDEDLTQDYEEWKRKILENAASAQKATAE
B4: Four and a half LIM domains protein 2 (Homo sapiens), Q14192 (parent)
chain: MTERFDCHHCNESLFGKKYILREESPYCVVCFETLFANTCEECGKPIGCDCKDLSYKDRHWHEACFHCSQCRNSLVDKPFAAKEDQLLCTDCYSNEYSSKCQECKKTIMPGTRKMEYKGSSWHETCFICHRCQQPIGTKSFIPKDNQNFCVPCYEKQHAMQCVQCKKPITTGGVTYREQPWHKECFVCTACRKQLSGQRFTARDDFAYCLNCFCDLYAKKCAGCTNPISGLGGTKYISFEERQWHNDCFNCKKCSLSLVGRGFLTERDDILCPDCGKDI
partner: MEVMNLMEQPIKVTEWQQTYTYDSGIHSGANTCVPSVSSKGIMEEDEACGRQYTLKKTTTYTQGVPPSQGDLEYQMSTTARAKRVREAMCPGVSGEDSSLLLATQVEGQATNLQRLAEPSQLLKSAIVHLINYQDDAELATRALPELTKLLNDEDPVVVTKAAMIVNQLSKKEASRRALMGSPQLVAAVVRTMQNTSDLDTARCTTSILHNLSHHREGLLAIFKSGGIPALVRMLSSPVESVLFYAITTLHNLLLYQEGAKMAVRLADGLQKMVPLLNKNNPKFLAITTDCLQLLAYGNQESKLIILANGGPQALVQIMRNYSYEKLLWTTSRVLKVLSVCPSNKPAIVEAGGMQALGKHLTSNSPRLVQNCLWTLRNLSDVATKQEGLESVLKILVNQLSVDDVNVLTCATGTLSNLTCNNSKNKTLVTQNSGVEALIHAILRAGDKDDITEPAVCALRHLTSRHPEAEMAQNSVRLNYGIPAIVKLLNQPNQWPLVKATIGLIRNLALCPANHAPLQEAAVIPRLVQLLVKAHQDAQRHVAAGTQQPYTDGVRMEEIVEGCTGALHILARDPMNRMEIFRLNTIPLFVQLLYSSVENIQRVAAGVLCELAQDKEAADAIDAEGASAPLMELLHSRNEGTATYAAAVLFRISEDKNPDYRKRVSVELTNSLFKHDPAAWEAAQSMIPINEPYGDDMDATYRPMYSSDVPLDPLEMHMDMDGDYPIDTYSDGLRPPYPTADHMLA
B5: Ubiquitin-conjugating enzyme E2 E3 (Homo sapiens), Q969T4 (parent)
chain: MSSDRQRSDDESPSTSSGSSDADQRDPAAPEPEEQEERKPSATQQKKNTKLSSKTTAKLSTSAKRIQKELAEITLDPPPNCSAGPKGDNIYEWRSTILGPPGSVYEGGVFFLDITFSSDYPFKPPKVTFRTRIYHCNINSQGVICLDILKDNWSPALTISKVLLSICSLLTDCNPADPLVGSIATQYLTNRAEHDRIARQWTKRYAT
B6: Notch homolog 2 N-terminal-like protein A (Homo sapiens), Q7Z3S9 (parent)
chain: MCVTYHNGTGYCKCPEGFLGEYCQHRDPCEKNRCQNGGTCVAQAMLGKATCRCASGFTGEDCQYSTSHPCFVSRPCLNGGTCHMLSRDTYECTCQVGFTGKECQWTDACLSHPCANGSTCTTVANQFSCKCLTGFTGQKCETDVNECDIPGHCQHGGTCLNLPGSYQCQCLQGFTGQYCDSLYVPCAPSPCVNGGTCRQTGDFTFECNCLPETVRRGTELWERDREVWNGKEHDEN
partner: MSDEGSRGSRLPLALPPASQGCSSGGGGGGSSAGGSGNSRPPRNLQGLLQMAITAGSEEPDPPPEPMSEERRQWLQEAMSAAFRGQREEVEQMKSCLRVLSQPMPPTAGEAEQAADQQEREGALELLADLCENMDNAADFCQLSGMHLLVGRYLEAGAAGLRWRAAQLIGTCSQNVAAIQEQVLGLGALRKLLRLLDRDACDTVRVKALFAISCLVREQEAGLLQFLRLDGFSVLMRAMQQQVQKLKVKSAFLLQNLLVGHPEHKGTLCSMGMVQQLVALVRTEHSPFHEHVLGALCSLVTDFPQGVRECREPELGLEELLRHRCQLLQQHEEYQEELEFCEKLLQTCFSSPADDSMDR
B7: E3 ubiquitin-protein ligase LNX (Homo sapiens), Q8TBB1 (parent)
chain: MNQPESANDPEPLCAVCGQAHSLEENHFYSYPEEVDDDLICHICLQALLDPLDTPCGHTYCTLCLTNFLVEKDFCPMDRKPLVLQHCKKSSILVNKLLNKLLVTCPFREHCTQVLQRCDLEHHFQTSCKGASHYGLTKDRKRRSQDGCPDGCASLTATAPSPEVSAAATISLMTDEPGLDNPAYVSSAEDGQPAISPVDSGRSNRTRARPFERSTIRSRSFKKINRALSVLRRTKSGSAVANHADQGRENSENTTAPEVFPRLYHLIPDGEITSIKINRVDPSESLSIRLVGGSETPLVHIIIQHIYRDGVIARDGRLLPGDIILKVNGMDISNVPHNYAVRLLRQPCQVLWLTVMREQKFRSRNNGQAPDAYRPRDDSFHVILNKSSPEEQLGIKLVRKVDEPGVFIFNVLDGGVAYRHGQLEENDRVLAINGHDLRYGSPESAAHLIQASERRVHLVVSRQVRQRSPDIFQEAGWNSNGSWSPGPGERSNTPKPLHPTITCHEKVVNIQKDPGESLGMTVAGGASHREWDLPIYVISVEPGGVISRDGRIKTGDILLNVDGVELTEVSRSEAVALLKRTSSSIVLKALEVKEYEPQEDCSSPAALDSNHNMAPPSDWSPSWVMWLELPRCLYNCKDIVLRRNTAGSLGFCIVGGYEEYNGNKPFFIKSIVEGTPAYNDGRIRCGDILLAVNGRSTSGMIHACLARLLKELKGRITLTIVSWPGTFL
partner: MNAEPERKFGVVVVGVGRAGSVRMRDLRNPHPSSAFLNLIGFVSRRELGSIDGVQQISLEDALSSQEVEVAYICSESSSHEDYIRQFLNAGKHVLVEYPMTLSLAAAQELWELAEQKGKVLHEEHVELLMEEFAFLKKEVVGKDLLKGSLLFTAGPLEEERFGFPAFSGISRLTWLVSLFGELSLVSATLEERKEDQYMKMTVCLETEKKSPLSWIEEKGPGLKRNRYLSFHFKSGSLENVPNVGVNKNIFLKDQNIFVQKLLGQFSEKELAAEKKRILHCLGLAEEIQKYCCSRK
B8: Protein LDOC1 (Homo sapiens), O95751 (parent)
chain: MVDELVLLLHALLMRHRALSIENSQLMEQLRLLVCERASLLRQVRPPSCPVPFPETFNGESSRLPEFIVQTASYMLVNENRFCNDAMKVAFLISLLTGEAEEWVVPYIEMDSPILGDYRAFLDEMKQCFGWDDDEDDDDEEEEDDY
partner: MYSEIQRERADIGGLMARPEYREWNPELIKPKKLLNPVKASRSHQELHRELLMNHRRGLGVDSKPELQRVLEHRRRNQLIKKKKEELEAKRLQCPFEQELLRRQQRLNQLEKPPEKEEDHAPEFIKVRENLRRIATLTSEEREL
B9: Notch homolog 2 N-terminal-like protein A (Homo sapiens), Q7Z3S9 (parent)
chain: B6 chain
partner: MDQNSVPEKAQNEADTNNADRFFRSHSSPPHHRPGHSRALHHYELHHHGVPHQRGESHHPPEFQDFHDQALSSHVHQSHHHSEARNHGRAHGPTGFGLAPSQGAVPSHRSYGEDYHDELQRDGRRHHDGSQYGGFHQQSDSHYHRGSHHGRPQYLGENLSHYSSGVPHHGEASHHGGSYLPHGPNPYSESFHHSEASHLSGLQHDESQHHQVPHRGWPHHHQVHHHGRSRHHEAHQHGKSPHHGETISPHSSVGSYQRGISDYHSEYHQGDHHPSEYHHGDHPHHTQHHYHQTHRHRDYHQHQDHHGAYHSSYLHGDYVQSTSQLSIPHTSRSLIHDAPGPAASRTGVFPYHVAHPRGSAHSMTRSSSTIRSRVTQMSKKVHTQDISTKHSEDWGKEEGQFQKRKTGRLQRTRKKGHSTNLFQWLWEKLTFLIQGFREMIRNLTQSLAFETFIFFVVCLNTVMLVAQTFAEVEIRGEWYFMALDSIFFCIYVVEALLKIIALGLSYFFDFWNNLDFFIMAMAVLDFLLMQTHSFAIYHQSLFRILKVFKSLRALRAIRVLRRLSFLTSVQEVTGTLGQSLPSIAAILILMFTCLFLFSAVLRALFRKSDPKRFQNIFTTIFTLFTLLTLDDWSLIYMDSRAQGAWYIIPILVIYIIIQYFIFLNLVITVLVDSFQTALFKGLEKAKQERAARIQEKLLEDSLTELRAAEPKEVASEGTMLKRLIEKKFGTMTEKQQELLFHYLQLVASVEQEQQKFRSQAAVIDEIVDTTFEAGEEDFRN

Variants of: B1
Settings: with creb3_human CREB3, O43889

Variant	effect of a mutation on the interaction
R184L	with no effect

Variants of: B2
Settings: with rbpms_human RBPMS

Variant	effect of a mutation on the interaction
I126M	with no effect

Variants of: B3
Settings: with orc6_human ORC6, Q9Y5N6

Variant	effect of a mutation on the interaction
N328S	with no effect

Variants of: B4
Settings: with plak_human JUP

Variant	effect of a mutation on the interaction
N95K	disrupting interaction strength
A37S	with no effect

Variants of: B5
Settings: with rnf5_human RNF5, Q99942
rnf5_human RNF5, Q99942, sequence (Q99942 whole entry): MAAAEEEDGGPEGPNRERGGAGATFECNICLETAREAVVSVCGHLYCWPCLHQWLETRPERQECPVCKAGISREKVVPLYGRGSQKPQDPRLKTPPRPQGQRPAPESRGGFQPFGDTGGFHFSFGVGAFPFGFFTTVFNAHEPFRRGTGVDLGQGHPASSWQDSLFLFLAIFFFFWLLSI

Variant	effect of a mutation on the interaction
S117T	with no effect

Variants of: B6
Settings: with hpbp1_human HSPBP1, Q9NZL4

Variant	effect of a mutation on the interaction
A115T	with no effect
R74Q	with no effect

Variants of: B7
Settings: with biea_human BLVRA

Variant	effect of a mutation on the interaction
R342H	with no effect

Variants of: B8
Settings: with FAM107A

Variant	effect of a mutation on the interaction
L12H	disrupting interaction strength

Variants of: B9
Settings: with ctsr1_human CATSPER1, Q8NEC5

Variant	effect of a mutation on the interaction
A115T	with no effect
